{"source": "patent US20110104788A1", "key": {"[1]": {"molecular_target": "human coagulation factor X (FX), full-length zymogen (human) (UniProt P00742)", "sequence (P00742 41-488 limits assumed)": "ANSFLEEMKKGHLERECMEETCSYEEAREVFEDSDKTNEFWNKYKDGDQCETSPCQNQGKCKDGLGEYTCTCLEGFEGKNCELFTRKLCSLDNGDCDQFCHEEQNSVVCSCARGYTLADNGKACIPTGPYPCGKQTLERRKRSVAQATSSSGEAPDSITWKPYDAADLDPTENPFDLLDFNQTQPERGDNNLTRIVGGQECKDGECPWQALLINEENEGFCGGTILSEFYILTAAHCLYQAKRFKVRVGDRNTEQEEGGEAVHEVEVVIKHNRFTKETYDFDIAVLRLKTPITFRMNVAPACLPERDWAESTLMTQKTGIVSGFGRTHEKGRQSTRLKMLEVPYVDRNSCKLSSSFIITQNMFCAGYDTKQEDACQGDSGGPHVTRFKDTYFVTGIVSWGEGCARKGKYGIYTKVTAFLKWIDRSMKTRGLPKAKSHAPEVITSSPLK"}, "[2]": {"molecular_target": "human coagulation factor X (FX), full-length zymogen (human) (UniProt P00742)", "test": "SPR (Biacore T100); human FX immobilised on CM5 chip, inhibitor injected; heterogeneous ligand model"}, "[3]": {"molecular_target": "mouse coagulation factor X (mouse) (UniProt O88947)", "sequence (O88947 41-481 limits assumed)": "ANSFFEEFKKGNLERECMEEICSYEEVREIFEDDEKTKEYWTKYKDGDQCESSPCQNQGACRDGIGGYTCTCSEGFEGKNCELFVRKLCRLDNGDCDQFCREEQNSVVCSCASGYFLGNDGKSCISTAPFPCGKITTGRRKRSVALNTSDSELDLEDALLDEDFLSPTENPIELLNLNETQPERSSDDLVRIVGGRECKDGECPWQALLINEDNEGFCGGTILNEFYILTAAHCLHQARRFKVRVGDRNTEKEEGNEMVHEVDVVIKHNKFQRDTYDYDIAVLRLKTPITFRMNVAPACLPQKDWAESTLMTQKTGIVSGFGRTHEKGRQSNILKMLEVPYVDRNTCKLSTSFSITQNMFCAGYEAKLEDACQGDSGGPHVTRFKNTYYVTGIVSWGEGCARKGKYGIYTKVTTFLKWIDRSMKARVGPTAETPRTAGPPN", "test": "SPR (Biacore T100); mouse FX immobilised on CM5 chip, inhibitor injected; heterogeneous ligand model"}}, "note": "pKd: −log10 of the molar value. Where two headings read alike, the source gives them in different places.", "data": [{"substance": "Ixolaris, 12 kDa two-Kunitz domain protein isolated from tick salivary gland (from UniProt Q964Q0 27-165) (other; other documents disagree on this pair)", "values": [{"measurement": "pKd", "setting": "[1]", "result": 8.89}, {"measurement": "koff", "setting": "[1]", "result": 0.000175, "unit": "s⁻¹"}, {"measurement": "kon", "setting": "[1]", "result": 135000, "unit": "M⁻¹ s⁻¹"}]}, {"substance": "nematode anticoagulant peptide-2 (NAPc2)", "values": [{"measurement": "pKd", "setting": "[2]", "result": 10.14}, {"measurement": "koff", "setting": "[2]", "result": 0.000623, "unit": "s⁻¹"}, {"measurement": "kon", "setting": "[2]", "result": "8.6e+06", "unit": "M⁻¹ s⁻¹"}, {"measurement": "pKd", "setting": "[3]", "result": 7.77}, {"measurement": "koff", "setting": "[3]", "result": 0.31, "unit": "s⁻¹"}, {"measurement": "kon", "setting": "[3]", "result": "1.8e+07", "unit": "M⁻¹ s⁻¹"}]}]}
